We go through one substance from paper PMC3960220, “1,2-β-Oligoglucan Phosphorylase from Listeria innocua” (PLoS ONE, 2014).

This data set deals with O=P(O)(O)O[C@H]1O[C@H](CO)[C@@H](O)[C@H](O)[C@H]1O. The data set can be described thus: phosphate release, Lowry and Lopez molybdate method, A700. Format: biochemical, Listeria innocua. Conditions: synthetic reaction (donor, up to 10 mM), co-substrate 10 mM Sop2, 100 mM MOPS-NaOH pH 7.5, 30°C.

Source text: phosphate release, Lowry and Lopez molybdate method, A700 on Lin1839r (recombinant Lin1839 protein; 1,2-β-oligoglucan phosphorylase)

Turning to “Lin1839r (recombinant Lin1839 protein; 1,2-β-oligoglucan phosphorylase) (Listeria innocua Clip11262; T2A)”, the Km (in general, the substrate concentration at which the rate is half of its maximum) was 1200 ± 200 µM; the kcat (usually the maximal rate divided by the concentration of active sites) was 43 ± 2 s⁻¹; the kcat/Km (as a rule, the second-order rate constant that governs catalysis at low substrate concentration) was found to be 34000 ± 4000 M⁻¹ s⁻¹.
